Reference: patent US9222947B2, “Anti-sAPPβ antibody” (SHIONOGI & CO., LTD., priority 2012, dated 2015)

Biological target: sAPPβ (Homo sapiens, UniProt P05067)
Test: Binding affinity on GLM chip using ProteOn (SPR)
Conditions: antibody immobilized, sAPPβ as analyte
Procedure: Binding affinity of the neoepitope antibody, 4G4 was immobilized on a GLM chip (BIO-RAD) and analyzed using a ProteOn (BIO-RAD). 4 different concentrations of sAPPβ (40, 20, 10, 5 nM) were injected as the analytes. […] Binding affinity of the internal antibody, 5H10 was immobilized on a GLM chip (BIO-RAD) and analyzed using a ProteOn (BIO-RAD). […] concentrations of sAPPβ (1000, 250, 62.5, 15.6, 3.91 nM) were injected as the analytes.

Sequence of sAPPβ (P05067 18-671 limits assumed): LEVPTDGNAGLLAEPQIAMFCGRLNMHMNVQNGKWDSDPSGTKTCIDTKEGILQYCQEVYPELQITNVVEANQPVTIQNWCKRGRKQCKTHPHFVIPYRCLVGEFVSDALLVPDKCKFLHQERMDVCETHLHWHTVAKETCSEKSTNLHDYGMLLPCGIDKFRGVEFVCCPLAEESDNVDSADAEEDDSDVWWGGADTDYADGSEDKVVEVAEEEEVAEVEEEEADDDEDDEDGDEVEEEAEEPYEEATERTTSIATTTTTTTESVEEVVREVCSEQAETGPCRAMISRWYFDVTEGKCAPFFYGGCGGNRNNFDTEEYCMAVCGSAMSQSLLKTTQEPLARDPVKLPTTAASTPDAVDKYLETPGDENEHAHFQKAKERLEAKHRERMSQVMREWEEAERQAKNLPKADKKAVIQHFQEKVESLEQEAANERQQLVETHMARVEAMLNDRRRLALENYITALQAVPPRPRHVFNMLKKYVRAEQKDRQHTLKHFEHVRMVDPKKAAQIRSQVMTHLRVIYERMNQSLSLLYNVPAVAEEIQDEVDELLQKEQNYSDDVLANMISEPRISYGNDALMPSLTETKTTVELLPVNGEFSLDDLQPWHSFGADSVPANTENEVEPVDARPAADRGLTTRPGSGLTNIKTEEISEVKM

B1: 5H10: mouse monoclonal antibody recognizing the internal structure/C-terminal fragments of sAPPβ; VH SEQ ID NO: 14, VL SEQ ID NO: 15 (antibody, V domains shown)
VH: QVQLQQSGTELAKPGASVKMSCKASGYTFIDYWMHWIKQSPGQGLEWIGFINPRSGSTTYNQKFRDKATLTVDTSSSTAYMQLTSLTSEDSAVYYCTRPDFDYFDYWGQGTTLTVSS
VL: DVLMTQTPLSLPVSLGDHASISCRSSQSIVQSNGNTYLEWYLQKPGQSPKLLIYKVSNRFSGVPDRFSGSGSGTDFTLKISSVEAEDLGIYYCFQASHVPLTFGAGTKLELKRA
modifications: VH of antibody 5H10; VL of antibody 5H10
  Kd: 0.62 nM
